Test results from the supplement of paper PMC10567573.

B1: FBXO3 (parent)
chain: FIDTYSDVGRYIDHYAAIKKAWDD

Variants of: B1
Assay: protein stability index of a GFP-peptide fusion (GPS, HEK-293T) (PSI 1-6); higher = more stable
Settings: c terminus: a fixed tail appended
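Further: lentivirally expressed fusions sorted by FACS into six bins by GFP to DsRed ratio, PSI derived from sequencing read proportions per bin multiplied by bin number.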

Protein stability index: each site, then its substitutions
D13: R 1.3, G 2.6, S 1.84, E 1.32, P 1.83, H 2.06
S6: P 2.03, M 1.77, D 1.69, C 2.12, L 2.17, Y 1.54, H 2.06, K 1.65, N 1.83, V 2.35, Q 1.89, A 1.97, I 2.14, G 1.94, W 3.09, F 1.6, R 3.1, E 1.62, T 1.65
A17: W 2, Y 2.6, P 2.17, L 1.83, D 2.23, R 1.98, C 1.92, G 1.84, N 1.63, V 2.18, T 1.68, Q 1.62, F 3.36, H 2.59, S 2.38, M 1.24, K 1.92, E 1.72, I 1.6
I18: F 2.12, E 1.97, D 1.7, H 2.39, L 2.11, A 2.03, G 2.38, C 1.94, K 2.41
D7: H 1.63, W 2.67, T 1.68, Q 1.53, G 2.33, L 1.93, N 1.77, V 2.43, P 2.16, E 1.48, M 2.64, F 2.79, K 2.19, A 1.21, Y 2.01, S 2.32, I 1.75, R 2.14, C 1.86
I2: H 2.47, W 2.45, L 2.39, Q 2.52, E 3.59, G 3.01, V 2.1, R 3.03, T 2.32, N 3.21, F 2.63, K 3.03, D 3.65, S 3.14, C 2.4, P 3, Y 2.5, M 2.41, A 2.45
I12: S 1.32, H 1.91, C 2.21, Y 1.98, G 2.19, E 1.99, K 1.76, Q 2.3, L 1.97, R 2.27, W 1.41, M 1.72, V 2, P 2.05, N 1.78, F 2.09, D 1.82, A 2.21, T 1.93
F1: L 3.22, D 3.74, Q 3.41, A 3.39, T 3.74, Y 2.09, V 3.28, P 3.62, W 2.58, M 2.79, E 3.21, I 2.56, C 2.87, H 3.58, R 3.09, K 2.47, G 3.05, N 3.57, S 3.64
Y5: G 2.21, A 2.25, V 2.47, W 2.27, F 2.19, T 2.23, L 1.96, E 2.8, I 2.05, N 2.21, H 2.13, M 2.1, K 2.44, S 2.5, P 3.12, D 2.9, Q 2.2, C 2.84, R 2.45
T4: Y 1.82, E 2.67, A 2.41, N 2.02, H 1.88, Q 1.59, S 1.89, D 2.04, L 1.89, M 1.89, F 2.28, G 3.57, C 1.55, W 1.37, I 1.94, P 1.86, V 1.91, R 2.12, K 1.83
